Here are results for two molecules from patent publication US20190016816A1 (APTEVO RESEARCH AND DEVELOPMENT, published 2019).

One assay addresses T1, human 5T4 on cells (human, UniProt Q13641 32-420).
T1 construct: also called TPBG; hu5T4
T1 sequence: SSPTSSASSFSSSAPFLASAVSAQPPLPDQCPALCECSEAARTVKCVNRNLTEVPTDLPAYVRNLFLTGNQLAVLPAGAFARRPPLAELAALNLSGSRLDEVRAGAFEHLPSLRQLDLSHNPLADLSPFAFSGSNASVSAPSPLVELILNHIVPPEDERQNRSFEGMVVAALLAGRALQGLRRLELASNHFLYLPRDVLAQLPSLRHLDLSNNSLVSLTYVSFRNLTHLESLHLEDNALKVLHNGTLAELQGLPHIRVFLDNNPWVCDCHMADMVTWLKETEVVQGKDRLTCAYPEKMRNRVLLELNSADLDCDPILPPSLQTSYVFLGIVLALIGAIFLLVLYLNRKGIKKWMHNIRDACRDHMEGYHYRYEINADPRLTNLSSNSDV
The assay can be described thus: flow cytometry, HT-29 cells, streptavidin-PE, normalized MFI of 2 pooled experiments. The method, then: Prior to the FACS staining, all cell lines were characterized for their 5T4 expression levels using a receptor density kit (Quantum Simply Cellular, anti-human IgG, Bangs Laboratories, Inc). Adherent cell lines were cultured according to their supplier's instructions and were harvested from their cell culture flasks using Trypsin/EDTA, counted in R10 medium in a Burker chamber, and diluted in FACS buffer (PBS+0.5% BSA, 0.05% NaN₃) to a concentration of 4×10⁶ cells/mL. 50 μL (0.20×10⁶) of cell solution was added to a 96-well FACS staining plate (Falcon #351190). Cells were incubated for 20 min in 4° C. with 50 μL of the biotinylated ALG.APV-210 (2× final concentration). The antibodies were added in a serial dilution starting at 20 μg/mL titrating down in a 12 step ½ dilution down to 0.010 μg/mL. Following 2× washing with FACS buffer, cells were incubated for 30 min in 4° C. with 100 μL of a secondary antibody (streptavidin-PE, BD #554061, diluted 1/500). […] Cells were analysed for ALG.APV-210 binding using flow cytometry (FACSVerse) by gating on single cells. MFI values (secondary antibody only subtracted) from 1 out of 2 independent experiments, as well as normalized data and EC₅₀-values of pooled data from 2 experiments were determined and plotted using GraphPad Prism 7, non-linear regression log (agonist) vs. normalized response—variable slope.
Background: Flow cytometry measures light scatter and fluorescence of single cells or particles in a stream.

The target of assay [1] is T2, cynomolgus CD137 on cells (cynomolgus macaque, UniProt A9YYE7 24-254).
T2 construct: whole, on cells; also called CHO-K1/cynomolgus CD137 cell line; cynomolgus monkey CD137 on CD3-stimulated primary CD8 T cells
Nature of the assay: flow cytometry, MFI of all CD3+CD8+ cells gated from CD3-stimulated cynomolgus PBMC. The method, then:
Following 48 h of incubation with or without CD3, human and cynomolgus PBMC were harvested, pooled, recounted and diluted in FACS buffer (PBS+0.5% BSA, 0.05% NaN₃) to a concentration of 5×10⁶ cells/mL. 50 μL (0.25×10⁶ cells) of cell solution was added to a 96-well FACS staining plate (Falcon #351190). Following 10 min of Fc-blocking in RT using Beriglobin (hIgG, 200 μg/mL), cells were washed in FACS buffer and then incubated for 1 h in 4° C. with 100 μL of the biotinylated ALG.APV-210 or negative control. The antibodies were added in a serial dilution starting either at 5 μg/mL titrating down in a 12 step ⅓ dilution down to […] (exp 1) or 1 μg/mL titrating down in a 12 step ½ dilution down to 0.0005 μg/mL (exp 2). […] Cells were analysed for ALG.APV-210 binding using flow cytometry by gating on viable, single cells expressing CD3 and CD8. MFI values (FMO subtracted) from 2 independent experiments as well as normalized pooled data from 2 experiments and EC₅₀-values were determined and plotted using GraphPad Prism 7, non-linear regression log (agonist) vs. normalized response—variable slope, n=6 donors/group.

The next assay addresses T3, cynomolgus 5T4 on cells (cynomolgus macaque, UniProt Q4R8Y9 35-420).
T3 construct: whole, on cells; also called CHO-K1/cynomolgus 5T4 transfectants
T3 sequence (looked up): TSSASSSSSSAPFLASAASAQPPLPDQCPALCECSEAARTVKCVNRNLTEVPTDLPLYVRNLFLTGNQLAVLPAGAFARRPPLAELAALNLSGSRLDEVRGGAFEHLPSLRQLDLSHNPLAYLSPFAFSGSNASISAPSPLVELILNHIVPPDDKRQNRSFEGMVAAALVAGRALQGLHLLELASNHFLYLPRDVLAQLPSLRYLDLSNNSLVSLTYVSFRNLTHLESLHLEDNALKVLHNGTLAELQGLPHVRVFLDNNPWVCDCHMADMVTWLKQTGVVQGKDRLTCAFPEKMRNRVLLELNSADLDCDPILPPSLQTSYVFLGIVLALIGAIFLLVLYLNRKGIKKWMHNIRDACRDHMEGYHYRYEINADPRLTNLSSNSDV
The assay can be described thus: flow cytometry, CHO-K1 cells expressing cynomolgus 5T4, labelled anti-human IgG secondary, MFI (median). The method, then: Binding studies were performed by standard flow cytometry-based staining procedures two cell lines expressing 5T4:CHO-K1 cells (obtained from Alligator) transduced with human or cynomolgus macaque 5T4 and SKOV-3 human ovarian adenocarcinoma cells which express (human) 5T4. All labeling and washes were performed in U-bottom 96-well plates in saline buffer with 0.1% BSA and 2 mM EDTA. Cell were plated at approximately 100,000 cells per well and incubated with a range of 100 nM to 0.05 nM concentrations of test molecules in […], for 30 minutes on ice. Cells were washed three times then incubated for another 30 min on ice with fluorescently-labeled secondary polyclonal antibody, F(ab′)² goat anti-human IgG (Jackson ImmunoResearch Laboratories). The cells were then washed twice and the samples acquired in a BD LSRII or a Symphony A3 flow cytometer. The sample files were analyzed using FlowJo software; the mean fluorescence intensity (MFI-mean) or median fluorescence intensity (MFI-median) of the live population of cells in each well was calculated after gating on live cells (forward vs side scatter). Nonlinear regression analysis to determine EC₅₀ values was performed in GraphPad Prism 6® graphing and statistics software.

T2 sequence (A9YYE7 entry or part of it): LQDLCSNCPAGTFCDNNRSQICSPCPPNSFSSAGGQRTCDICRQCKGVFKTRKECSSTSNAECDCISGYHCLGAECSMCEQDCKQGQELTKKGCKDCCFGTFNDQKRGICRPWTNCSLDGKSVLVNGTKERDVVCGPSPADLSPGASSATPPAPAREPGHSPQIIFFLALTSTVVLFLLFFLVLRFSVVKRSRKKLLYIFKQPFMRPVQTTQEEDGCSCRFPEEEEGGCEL

B1: biotinylated ALG.APV-210 (bispecific antibody)
chain: EVQLLESGGGLVQPGGSLRLSCAASGFTFSHGSMYWVRQAPGKGLEWVSSISSGSGSTYYADSVKGRFTISHDNSKNTLYLQMNSLRAEDTAVYYCARSSYYGSYYSIDYWGQGTLVTVSSGGGGSGGGGSGGGGSGGGGSDIQMTQSPSSLSASVGDRVTITCRASQSISSYLNWYQQKPGKAPKLLIYAASSLQSGVPSRFSGSGSGTDFTLTISSLQPEDFATYYCQQYYDNLPTFGQGTKLEIKEPKSSDKTHTCPPCPAPEAAGAPSVFLFPPKPKDTLMISRTPEVTCVVVDVSHEDPEVKFNWYVDGVEVHNAKTKPREEQYNSTYRVVSVLTVLHQDWLNGKEYKCAVSNKALPAPIEKTISKAKGQPREPQVYTLPPSRDELTKNQVSLTCLVKGFYPSDIAVEWESNGQPENNYKTTPPVLDSDGSFFLYSKLTVDKSRWQQGNVFSCSVMHEALHNHYTQKSLSLSPGSGGGGSGGGGSGGGGSPSEVQLLESGGGLVQPGGSLRLSCAASGFTFSSYAMSWVRQAPGKCLEWVSAISGSGGSTYYADSVKGRFTISRDNSKNTLYLQMNSLRAEDTAVYYCARYYGGYYSAWMDYWGQGTLVTVSSGGGGSGGGGSGGGGSGGGGSDIQMTQSPSSLSASVGDRVTITCRASQSISSFLNWYQQKPGKAPKLLIYAASSLQSGVPSRFSGSGSGTDFTLTISSLQPEDSATYYCQQTYGYLHTFGCGTKLEIKR
notes: also called ALG.APV-210 (biotinylated for FACS detection)
B1: the results for the EC50 (with human 5T4 on cells; in assay [1]) were 12 nM and 0.236 nM, respectively.

B2: ALG.APV-187 (bispecific antibody)
chain: EVQLLESGGGLVQPGGSLRLSCAASGFTFSHGSMYWVRQAPGKGLEWVSSISSGSGSTYYADSVKGRFTISHDNSKNTLYLQMNSLRAEDTAVYYCARSSYYGSYYSIDYWGQGTLVTVSSGGGGSGGGGSGGGGSGGGGSDIQMTQSPSSLSASVGDRVTITCRASQSISSYLNWYQQKPGKAPKLLIYAASSLQSGVPSRFSGSGSGTDFTLTISSLQPEDFATYYCQQYYDNLPTFGQGTKLEIKSSEPKSSDKTHTCPPCPAPEAAGAPSVFLFPPKPKDTLMISRTPEVTCVVVDVSHEDPEVKFNWYVDGVEVHNAKTKPREEQYNSTYRVVSVLTVLHQDWLNGKEYKCAVSNKALPAPIEKTISKAKGQPREPQVYTLPPSRDELTKNQVSLTCLVKGFYPSDIAVEWESNGQPENNYKTTPPVLDSDGSFFLYSKLTVDKSRWQQGNVFSCSVMHEALHNHYTQKSLSLSPGSGGGGSGGGGSGGGGSPSEVQLLESGGGLVQPGGSLRLSCAASGFTFSSYAMSWVRQAPGKCLEWVSAISGSGGSTYYADSVKGRFTISRDNSKNTLYLQMNSLRAEDTAVYYCARYYGGYYSAWMDYWGQGTLVTVSSGGGGSGGGGSGGGGSGGGGSDIQMTQSPSSLSASVGDRVTITCRASQSISSFLNWYQQKPGKAPKLLIYAASSLQSGVPSRFSGSGSGTDFTLTISSLQPEDSATYYCQQTYGYLHTFGCGTKLEIKR
notes: Optimized ADAPTIR scFv-Fc-scFv homodimer with stabilizing disulfide in the 1210 scFv
Turning to B2, in the assay with cynomolgus 5T4 on cells, the EC50 amounted to 21 nM and the “Maximum MFI” value was 25400.

One may read the EC50 as the midpoint of the concentration-response curve. A low value points to higher potency in that assay.
